Source: patent US20240327535A1 (EISAI R AND D MANAGEMENT, published 2024)
Where two headings read alike, the source gives them in different places.

Experiments:
Test in all cases: Octet BLI; Fab 200 nM
[1] = molecular target: T1, extracellular domain of human BCMA (human, UniProt Q02223 1-54)
T1 construct: amine-linked to Octet AR2G tips; also called hsBCMA; BCMA (human)
T1 sequence: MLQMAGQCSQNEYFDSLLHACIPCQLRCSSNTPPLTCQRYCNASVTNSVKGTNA

[2] = molecular target: T2, extracellular domain of rhesus monkey BCMA (rhesus monkey, UniProt F7FFA0 1-53)
T2 construct: extracellular domain; also called RhBCMA

[3] = molecular target: T1, extracellular domain of human BCMA; remark: listed apart in the source
[4] = molecular target: T2, extracellular domain of rhesus monkey …; remark: listed apart in the source

T2 sequence (F7FFA0 entry or part of it): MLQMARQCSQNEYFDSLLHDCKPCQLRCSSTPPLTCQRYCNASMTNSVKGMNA

Binder | Kd [1] [nM] | Kd [2] [nM] | Kd [3] [nM] | Kd [4] [nM]
AB200-(2Vk30)_R2-VH-v45 (Fab, V domains shown) VH: QVQLVQSGAEVKKPGSSVKVSCKASGGTYSNYWIHWVRQAPGQGLEWMGATYRIHSTTNYNQKFKSRVTITADKSTSTAYMELSSLRSEDTAVYYCARGAIFHGYDVIDNWGQGTLVTVSS VL: DIQMTQSPSSLSASVGDRVTITCRASQSISSYLNWYQQKPGKAPKLLIYATSNLQIGVPSRFSGSGSGTDFTLTISSLQPEDFATYYCQQYRRIPWTFGQGTKLEIKR | 720 | 3080 | – | –
AB200-(2Vk30)_R2-VH-v74 (Fab, V domains shown) VH: QVQLVQSGAEVKKPGSSVKVSCKASGGTFSNYWIHWVRQAPGQGLEWMGATYRIHSDTYYAEKFKSRVTITADKSTSTAYMELSSLRSEDTAVYYCARGAIYHGFDVIDNWGQGTLVTVSS VL: DIQMTQSPSSLSASVGDRVTITCRASQSISSYLNWYQQKPGKAPKLLIYATSNLQIGVPSRFSGSGSGTDFTLTISSLQPEDFATYYCQQYRRIPWTFGQGTKLEIKR | 2.17 | 9.83 | – | –
AB200-(2Vk30)_R2-VH-v59 (Fab, V domains shown) VH: QVQLVQSGAEVKKPGSSVKVSCKASGGTFSNYWIHWVRQAPGQGLEWMGGTYRIHSDTYYAQKFKSRVTITADKSTSTAYMELSSLRSEDTAVYYCARGAIYHGYDVIENWGQGTLVTVSS VL: DIQMTQSPSSLSASVGDRVTITCRASQSISSYLNWYQQKPGKAPKLLIYATSNLQIGVPSRFSGSGSGTDFTLTISSLQPEDFATYYCQQYRRIPWTFGQGTKLEIKR | 37.8 | 121 | – | –
AB200-(2Vk35)_R2-VH-v8 (Fab, V domains shown) VH: QVQLVQSGAEVKKPGSSVKVSCKASGGTYSNYWIHWVRQAPGQGLEWMGGTYRSQSDTYYNQKFKSRVTITADKSTSTAYMELSSLRSEDTAVYYCARGAIYHGFDVIDNWGQGTLVTVSS VL: DIQMTQSPSSLSASVGDRVTITCRASQSISSYINWYQQKPGKAPKLLIYATSNLQSGVPSRFSGSGSGTDFTLTISSLQPEDFATYYCQQYRRIPWTFGQGTKLEIKR | – | – | 12.1 | 38
AB200-(2Vk30)_R2-VH-v51 (Fab, V domains shown) VH: QVQLVQSGAEVKKPGSSVKVSCKASGGSFSNYWIHWVRQAPGQGLEWMGGTYRIQSDTYYNQKFKSRVTITADKSTSTAYMELSSLRSEDTAVYYCARGAIYHGYDVIENWGQGTLVTVSS VL: DIQMTQSPSSLSASVGDRVTITCRASQSISSYLNWYQQKPGKAPKLLIYATSNLQIGVPSRFSGSGSGTDFTLTISSLQPEDFATYYCQQYRRIPWTFGQGTKLEIKR | 20.3 | 68.9 | – | –
AB200-(2Vk30)_R2-VH-v67 (Fab, V domains shown) VH: QVQLVQSGAEVKKPGSSVKVSCKASGGTFSNYWIHWVRQAPGQGLEWMGATYRIHSTTYYNEKFKSRVTITADKSTSTAYMELSSLRSEDTAVYYCARGAVYHGYDVIDNWGQGTLVTVSS VL: DIQMTQSPSSLSASVGDRVTITCRASQSISSYLNWYQQKPGKAPKLLIYATSNLQIGVPSRFSGSGSGTDFTLTISSLQPEDFATYYCQQYRRIPWTFGQGTKLEIKR | 16.8 | 35.7 | – | –
AB200-(2Vk30)_R2-VH-v71 (Fab, V domains shown) VH: QVQLVQSGAEVKKPGSSVKVSCKASGGTFSNYWIHWVRQAPGQGLEWMGATYRIHSDTNYNEKFKSRVTITADKSTSTAYMELSSLRSEDTAVYYCARGAIFHGYDVIDNWGQGTLVTVSS VL: DIQMTQSPSSLSASVGDRVTITCRASQSISSYLNWYQQKPGKAPKLLIYATSNLQIGVPSRFSGSGSGTDFTLTISSLQPEDFATYYCQQYRRIPWTFGQGTKLEIKR | 29.7 | 64.1 | – | –
AB200-(2Vk30)_R2-VH-v65 (Fab, V domains shown) VH: QVQLVQSGAEVKKPGSSVKVSCKASGGTFSNYWIHWVRQAPGQGLEWMGATYRIQSTTYYNQKFKSRVTITADKSTSTAYMELSSLRSEDTAVYYCARGAIYHGFDVIDNWGQGTLVTVSS VL: DIQMTQSPSSLSASVGDRVTITCRASQSISSYLNWYQQKPGKAPKLLIYATSNLQIGVPSRFSGSGSGTDFTLTISSLQPEDFATYYCQQYRRIPWTFGQGTKLEIKR | 27.3 | 46.8 | – | –
